Test results: PMC11082194, “A common polymorphism in the Intelectin-1 gene influences mucus plugging in severe asthma” (Nature Communications, 2024)
Each block holds one molecule with its values, some of them ahead of it.

Experiments:
[1] = target: purified human airway mucins; assay: ELISA; purified mucins coated on NUNC Maxisorp plate overnight at 4 °C, 20 μg/mL, carbonate-bicarbonate buffer pH 9.6; FLAG-ITLN-1 10 μg/mL for 2 hours in binding buffer B (TBS, 3 mM CaCl3, 1% BSA, 0.05% Tween-20, 50 mM EDTA); anti-FLAG HRP, absorbance 450 nm; also with galactose 100 mM, heparin 150 μg/mL or dextran sulfate 150 μg/mL
[2] = target: T1, FLAG-tagged recombinant ITLN-1 (human, UniProt Q8WWA0 19-298); assay: ELISA; C-terminal recombinant peptide coated on NUNC Maxisorp plate overnight at 4 °C, 20 μg/mL, carbonate-bicarbonate buffer pH 9.6; FLAG-ITLN-1 10 μg/mL for 2 hours in binding buffer A (TBS, 3 mM CaCl3, 1% BSA, 0.05% Tween-20); anti-FLAG HRP, absorbance 450 nm; also with heparin 150 μg/mL; conditions: both partners purified
T1 construct: intelectin-1 (ITLN-1), human, recombinant; also called intelectin-1; recombinant human ITLN-1 protein; source: bought: Sigma, SRP8047

percent decrease of binding with dextran sulfate (150 μg/mL) [1]: 74%
percent decrease of binding with heparin (150 μg/mL) [1]: 51.9%
Molecule: FLAG-tagged recombinant ITLN-1 (from UniProt Q8WWA0 19-298) (natural protein)

binding result [2]: binds
B1: MUC5AC C-terminal recombinant peptide (AA5568-AA5654) (domain or fragment, human, UniProt P98088 5568-5654, looked up)
chain: YSLEGNTVEHRCQCCQELRTSLRNVTLHCTDGSSRAFSYTEVEECGCMGRRCPAPGDTQHSEEAEPEPSQEAESGSWERGVPVSPMH
notes: MUC5AC mucin, human, C-terminal recombinant peptide, residues 5568-5654; also called C-terminal MUC5AC; C-terminal peptide of MUC5AC; source: bought: Mybiosource, #MBS2009104
